Test results as given in patent US20030163846A1, “Process for the genetic modification of a plant” (priority 2000, published 2003).

What was measured:
[1] = yeast growth on a saccharose medium (SUSY7/ura3); format: cell-based; conditions: 2% saccharose medium, pH 5.0
Description: (§1) The yeast strain SUSY7/ura3 is a modified version of SUSY7 (Riesmeier et al., EMBO J. (1992) 11, 4705-4713), which contains a deletion of a portion of the URA3 gene and, as a result, permits selection for uracil auxotrophy. Media that contained the 1.7 g/L yeast nitrogen base without amino acids (Difco), 2% saccharose, 20 mg/L tryptophane, and 1.5% agarose, pH 5.0, were used to analyze yeast growth on a saccharose medium.
(§2) For the saccharose uptake tests, yeast was cultivated in a liquid minimal medium containing glucose, up to an OD623 of approximately 0.8. Cells were collected by means of centrifugation, washed in 25 mM sodium phosphate buffer (pH 5.5), and suspended in the same buffer at an OD623 of 20. The uptake tests were initiated by adding glucose ending at a final concentration of 10 mM to the yeast cells one minute before adding ^14C-saccharose. Following incubation at 30° C. while stirring, cells were collected by means of vacuum filtration on fiberglass filters (1-5 minutes), washed twice with 4 mL 10 mM saccharose (at the freezing point), and the radioactivity was determined using a liquid scintillation counter. […] A significant difference compared with the vector controls is apparent.

[2] = 14C-saccharose uptake tests in yeast expressing SUT4 (SUSY7/ura3); format: cell-based; conditions: for Km: Michaelis-Menten nonlinear regression
Description: as §1, §2
Data for the kinetic analysis were obtained for SUT4 from a nonlinear regression of the uptake measurements using the Michaelis-Menten equation. Km was represented as an average of eight determinations using three independent transformants±standard deviation. The KM value for saccharose that was determined was 11.6±0.6 mM (at a pH of 5.5) and 5.9±0.8 mM (at a pH of 4.0) for SUT4 from arabidopsis. For SUT4 from Solanum tuberosum the KM value was 6.0±1.2 mM (pH 4.0) (see FIG. 5B).

B1: AtSUT4: saccharose transporter SUT4 from Arabidopsis thaliana, amino acid sequence SEQ ID no. 5 (protein, listed as Arabidopsis thaliana)
chain: MATSDQDRRHRATRNRPPIPRPSNSSSRPVVPPPRSKVSKRVLLRVASVACGIQFGWALQLSLLTPYVQELGIPHAWASVIWLCGPLSGLFVQPLVGHSSDRCTSKYGRRRPFIVAGAVAISISVMVIGHAADIGWAFGDREGKIKPRAIVAFVLGFWILDVANNMTQGPCRALLADLTENDNRRTRVANGYFSLFMAVGNVLGYATGSYNGWYKIFTFTKTVACNVECANLKSAFYIDVVFIAITTILSVSAAHEVPLASLTSEAHGQTSGTDEAFLSEIFGTFRYFPGNVWIILLVTALTWIGWFPFILFDTDWMGREIYGGEPNIGTSYSAGVSMGALGLMLNSVFLGITSVLMEKLCRKWGAGFVWGISNILMAICFLGMIITSFVASHLGYIGHEQPPASIVFAAVLIFTILGIPLAITYSVPYALISIRIESLGLGQGLSLGVLNLAIVIPQVIVSVGSGPWDQLFGGGNSPALAVGAATGFIGGIVAILALPRTRIQKPIPLP
[1]
  yeast growth on saccharose: permitted yeast to grow on saccharose
[2]; FIG. 5A
  functional saccharose transporter (uptake of 14C-saccharose vs vector controls): functional saccharose transporters
[2]; pH 4.0, average ± standard deviation
  Km: 5.9 ± 0.8 mM
[2]; pH of 5.5, average of eight determinations ± standard deviation
  Km: 11.6 ± 0.6 mM
